System: ABP1
Assay: DHFR-PCA on solid medium, bait ABP1 (Fig. 1B)
Assay type: cell-based, Saccharomyces cerevisiae
Details: bait ABP1, label = prey; for medrep (log2 median colony size normalized to plate background, PCA score): 2-4 replicates; for Ratio (SH3-deleted/WT medrep): only significant differences showed, PPIs completely lost have a ratio of 0.1 and the gained PPIs 2.5
Excerpt: Supplement 41467_2021_21873_MOESM8_ESM.xlsx, sheet "Fig1B" | column: medsize; medrep; Ratio; Score

Molecule | medrep (log2 median colony size normalized to plate background, PCA score) | Ratio (SH3-deleted/WT medrep)
YPL246C (protein, UniProt Q12270 1-262, looked up) Rhomboid-type serine protease …: MNWKSYVFPGGHPPAALTTGLVVFLTAIYLLSFIFALREDLSLAPESLFKLQMSRLSLYPLIHLSLPHLLFNVLAIWAPLNLFEETHGTVYTGVFLNLSALFAGILYCLLGKLLYPEALVAGASGWCFTLFAYYSFKESQIRPRTRIFRTDYSIPTLYTPLVLLVAIAVVIPGSSFWGHFFGLCVGYAIGYKESWFNKITPPGWIITKIEKSLDGLIRLIPWGIKYYRDEDIDRTKDYEPLMSTETPLPLHNDNSGTVLGTA | 1.384 | 2.5
YOR229W (protein, UniProt Q12206 1-467, looked up) Transcriptional modulator WTM2: MAKSKSSQGASGARRKPAPSLYQHISSFKPQFSTRVDDVLHFSKTLTWRSEIIPDKSKGTLTTSLLYSQGSDIYEIDTTLPLKTFYDDDDDDDNDDDDEEGNGKTKSAATPNPEYGDAFQDVEGKPLRPKWIYQGETVAKMQYLESSDDSTAIAMSKNGSLAWFRDEIKVPVHIVQEMMGPATRYSSIHSLTRPGSLAVSDFDVSTNMDTVVKSQSNGYEEDSILKIIDNSDRPGDILRTVHVPGTNVAHSVRFFNNHLFASCSDDNILRFWDTRTADKPLWTLSEPKNGRLTSFDSSQVTENLFVTGFSTGVIKLWDARAVQLATTDLTHRQNGEEPIQNEIAKLFHSGGDSVVDILFSQTSATEFVTVGGTGNVYHWDMEYSFSRNDDDNEDEVRVAAPEELQGQCLKFFHTGGTRRSSNQFGKRNTVALHPVINDFVGTVDSDSLVTAYKPFLASDFIGRGYDD | 1.855 | 2.5

— paper PMC7954794, “Protein context shapes the specificity of SH3 domain-mediated interactions in vivo” (Nature Communications, 2021)
